Values quoted from earlier work, collected in publication doi:10.1101/2025.04.17.649309.

Molecular target: Cys12 (UniProt position 12, YTKETCPYCHR)

For “Glutaredoxin 3 (Grx3) (Escherichia coli)”, the pKa is given as 4.1.
